From patent US6831059 (ALLERGAN SALES, dated 2004) come the findings set out here.

One experiment has as its target native BoNT/A H chain (UniProt P0DPI0).
Experiment [1] has as its target native TeTx H chain (UniProt P04958).
Experiment [2] addresses T1, native TeTx H chain (UniProt P04958 458-1315).
T1 sequence: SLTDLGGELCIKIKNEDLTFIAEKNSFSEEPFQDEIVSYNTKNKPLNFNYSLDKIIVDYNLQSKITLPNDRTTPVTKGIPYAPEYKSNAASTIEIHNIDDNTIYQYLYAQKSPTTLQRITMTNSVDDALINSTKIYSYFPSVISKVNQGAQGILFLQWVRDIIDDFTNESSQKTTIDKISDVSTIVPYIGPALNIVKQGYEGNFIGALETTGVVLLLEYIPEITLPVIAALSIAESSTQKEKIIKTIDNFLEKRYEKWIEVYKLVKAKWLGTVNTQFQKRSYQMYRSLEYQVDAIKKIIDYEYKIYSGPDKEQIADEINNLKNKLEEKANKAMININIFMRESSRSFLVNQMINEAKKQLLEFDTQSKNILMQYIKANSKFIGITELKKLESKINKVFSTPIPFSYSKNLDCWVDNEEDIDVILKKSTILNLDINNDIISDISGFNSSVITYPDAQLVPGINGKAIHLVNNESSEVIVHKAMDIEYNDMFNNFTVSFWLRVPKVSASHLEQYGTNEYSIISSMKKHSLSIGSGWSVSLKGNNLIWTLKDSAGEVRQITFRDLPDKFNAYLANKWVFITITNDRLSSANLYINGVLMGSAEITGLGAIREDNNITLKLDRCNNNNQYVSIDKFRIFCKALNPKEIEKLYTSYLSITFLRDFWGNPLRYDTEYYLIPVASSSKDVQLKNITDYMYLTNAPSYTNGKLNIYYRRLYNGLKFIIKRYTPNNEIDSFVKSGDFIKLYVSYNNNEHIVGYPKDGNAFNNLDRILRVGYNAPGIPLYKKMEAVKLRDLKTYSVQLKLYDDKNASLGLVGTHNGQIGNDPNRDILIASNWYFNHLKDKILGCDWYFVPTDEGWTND
Briefly: reassociation by dialysis, non-reducing SDS-PAGE, silver staining.

Sequence of native BoNT/A H chain (P0DPI0 449-1296 limits assumed): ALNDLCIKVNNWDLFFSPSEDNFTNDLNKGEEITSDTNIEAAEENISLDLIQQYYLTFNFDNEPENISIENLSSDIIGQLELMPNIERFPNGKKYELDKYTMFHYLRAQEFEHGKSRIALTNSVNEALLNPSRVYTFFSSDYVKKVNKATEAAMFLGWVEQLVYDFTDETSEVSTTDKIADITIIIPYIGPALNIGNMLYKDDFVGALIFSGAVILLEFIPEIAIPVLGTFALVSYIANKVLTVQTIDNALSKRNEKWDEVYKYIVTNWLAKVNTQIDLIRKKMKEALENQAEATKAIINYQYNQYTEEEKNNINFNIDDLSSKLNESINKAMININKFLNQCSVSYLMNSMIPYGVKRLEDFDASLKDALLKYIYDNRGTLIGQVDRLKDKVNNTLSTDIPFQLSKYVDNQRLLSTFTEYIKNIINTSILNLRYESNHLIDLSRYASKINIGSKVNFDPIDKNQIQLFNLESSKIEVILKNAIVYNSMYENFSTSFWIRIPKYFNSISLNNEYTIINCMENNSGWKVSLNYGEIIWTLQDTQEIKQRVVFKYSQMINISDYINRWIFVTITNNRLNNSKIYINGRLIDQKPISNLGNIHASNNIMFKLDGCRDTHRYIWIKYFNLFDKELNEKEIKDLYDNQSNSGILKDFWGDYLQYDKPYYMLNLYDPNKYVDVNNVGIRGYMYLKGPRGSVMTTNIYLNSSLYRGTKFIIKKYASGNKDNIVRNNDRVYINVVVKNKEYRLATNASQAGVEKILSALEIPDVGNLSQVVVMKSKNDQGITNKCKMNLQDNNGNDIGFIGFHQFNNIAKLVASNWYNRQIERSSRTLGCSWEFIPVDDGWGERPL

In the experiment with native BoNT/A H chain, “native BoNT/A L chain (from UniProt P0DPI0 2-448) (enzyme)” came in with a proportion of L chain reassociated with the H chain of over 90%. “recombinant wild-type TeTx L chain (from UniProt P04958 1-457) (enzyme)” displayed a relative amount of the dichain species in the experiment with native TeTx H chain [1] of 55.1%.

B1: native TeTx L chain (enzyme)
chain: PITINNFRYSDPVNNDTIIMMEPPYCKGLDIYYKAFKITDRIWIVPERYEFGTKPEDFNPPSSLIEGASEYYDPNYLRTDSDKDRFLQTMVKLFNRIKNNVAGEALLDKIINAIPYLGNSYSLLDKFDTNSNSVSFNLLEQDPSGATTKSAMLTNLIIFGPGPVLNKNEVRGIVLRVDNKNYFPCRDGFGSIMQMAFCPEYVPTFDNVIENITSLTIGKSKYFQDPALLLMHELIHVLHGLYGMQVSSHEIIPSKQEIYMQHTYPISAEELFTFGGQDANLISIDIKNDLYEKTLNDYKAIANKLSQVTSCNDPNIDIDSYKQIYQQKYQFDKDSNGQYIVNEDKFQILYNSIMYGFTEIELGKKFNIKTRLSYFSMNHDPVKIPNLLDDTIYNDTEGFNIESKDLKSEYKGQNMRVNTNAFRNVDGSGLVSKLIGLCKKIIPPTNIRENLYNRTA
Regarding B1, the binding result with native TeTx H chain [2] is given as “binds”.
